Test results taken from publication PMC6640692, “Canine CD117-Specific Antibodies with Diverse Binding Properties Isolated from a Phage Display Library Using Cell-Based Biopanning” (Antibodies, 2019).

Target: T1, recombinant canine CD117-ECD-human-Fc fused protein (canine, UniProt O97799 28-527)
T1 construct: canine CD117 (c-Kit) extracellular domain, amplified by PCR from a GeneArt-synthesized CD117 template (NP_001003181); The forward primer begins at the ATG start codon (MRGARG), so the secretion signal appears to be in the construct; Dimer through disulfide linkage in the hFc domain (non-reducing SDS-PAGE); also called CD117-hFc; ECD-CD117-hFc; source: CHO-S cells, transient transfection, purified …
Assay: ELISA; competitive ELISA: plate coated with 1 ug/mL canine CD117-hFc; 50 ng/mL canine SCF-His pre-mixed with serially diluted mAbs (from 40 ug/mL) in 2% MPBS, RT 1 h; bound SCF detected with anti-His HRP
Details: both partners purified

T1 sequence (O97799 28-527): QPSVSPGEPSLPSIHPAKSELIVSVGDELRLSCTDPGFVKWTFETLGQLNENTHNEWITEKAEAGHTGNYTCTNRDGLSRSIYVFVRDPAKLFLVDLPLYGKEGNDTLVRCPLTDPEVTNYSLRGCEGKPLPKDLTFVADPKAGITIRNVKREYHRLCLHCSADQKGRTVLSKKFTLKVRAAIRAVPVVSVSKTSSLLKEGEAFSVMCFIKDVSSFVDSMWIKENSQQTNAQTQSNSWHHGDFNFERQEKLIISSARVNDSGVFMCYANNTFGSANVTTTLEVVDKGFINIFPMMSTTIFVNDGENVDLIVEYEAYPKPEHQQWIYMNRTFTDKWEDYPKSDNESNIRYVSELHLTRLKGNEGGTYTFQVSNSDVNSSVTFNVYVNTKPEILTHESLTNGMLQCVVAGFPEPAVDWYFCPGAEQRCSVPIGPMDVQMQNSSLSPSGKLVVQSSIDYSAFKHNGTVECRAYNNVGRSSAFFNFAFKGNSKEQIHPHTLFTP

binding result: binds
B1: recombinant canine stem cell factor (SCF)-His (ligand, UniProt Q06220 26-191, looked up)
chain: KGICGKRVTDDVKDVTKLVANLPKDYKIALKYVPGMDVLPSHCWISVMVEQLSVSLTDLLDKFSNISEGLSNYSIIDKLVKIVDDLVECTEGYSFENVKKAPKSPELRLFTPEEFFRIFNRSIDAFKDLETVASKSSECVVSSTLSPDKDSRVSVTKPFMLPPVAA
notes: signal peptide in the construct; canine SCF, secretion signal and the soluble part of the extracellular domain, NP_001012753.1 residues 1 to 191; also called canine SCF; SCF-His-tag; source: CHO-S cells, transient transfection, purified from supernatant (HisTrap excel IMAC)
